Laboratory results reported in patent publication US20190367620A1 (Merck KGaA, published 2019).
Substitutions are numbered along the chain they refer to.

Experiments:
Assay in all cases: SPR as in Example 1.8
[1] = molecular target: T1, FGFR1 D2 point mutant A58G (human, UniProt P11362 22-254)
T1 chain: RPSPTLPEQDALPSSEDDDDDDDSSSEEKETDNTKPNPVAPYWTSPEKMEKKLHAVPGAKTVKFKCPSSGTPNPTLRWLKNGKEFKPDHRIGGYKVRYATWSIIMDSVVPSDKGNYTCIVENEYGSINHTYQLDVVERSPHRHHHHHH
Experimental: (§1) Binding affinities of anti-FGFR1 antibodies to FGFR1 were measured by Surface Plasmon Resonance (SPR) using a GE Healthcare BIAcore 4000 instrument as follows. Goat anti-human Fc antibody (Jackson ImmunoResearch Laboratories #109-005-098) was first immobilized on BIAcore carboxymethylated dextran CM5 chip using direct coupling to free amino groups following the procedure described by the manufacturer. Antibodies were then captured on the CM5 biosensor chip to achieve approximately 200 response units (RU). Binding measurements were performed using the running HBS-EP+ buffer. A 2-fold dilution series of His-tagged FGFR1 proteins were injected at a flow rate of 30 μl/min at 25° C. Association rates (kₒₙ, per mol/s) and dissociation rates (koff, per s) were calculated using a simple 1:1 Langmuir binding model (Biacore 4000 Evaluation Software). The equilibrium dissociation constant (KD, mol) was calculated as the ratio of koff/kₒₙ.
(§2) To obtain a finer, residue-level mapping of the epitope and to complement the HD exchange data, molecular modelling and manual inspection of the crystal structure of FGFR1 [(Beenken et al. 2012); PDB record 3OJV] was used to select solvent exposed residues within and around the epitope identified by HD exchange. The selected residues were mutated either to alanine (large to small) or to glycine if the selected residue was alanine. In total 35 point mutants were designed, expressed and purified in HEK cells, and tested for binding to mAb #A08 using surface plasmon resonance as described in Example 1.8. The affinity of the antibody for wild-type and each mutant was determined and used to calculate the contribution of each epitope residue to the binding energy.

[2] = molecular target: T2, FGFR1 D2 point mutant G92A (human, UniProt P11362 22-254)
T2 chain: T1 chain with G58A, G92A
Experimental: as §1, §2

[3] = molecular target: T3, FGFR1 D2 point mutant E50A (human, UniProt P11362 22-254)
T3 chain: T1 chain with E50A, G58A
Experimental: as §1, §2

[4] = molecular target: T4, FGFR1 D2 point mutant P87A (human, UniProt P11362 22-254)
T4 chain: T1 chain with G58A, P87A
Experimental: as §1, §2

[5] = molecular target: T5, FGFR1 D2 point mutant H89A (human, UniProt P11362 22-254)
T5 chain: T1 chain with G58A, H89A
Experimental: as §1, §2

[6] = molecular target: T6, FGFR1 D2 point mutant D106A (human, UniProt P11362 22-254)
T6 chain: T1 chain with G58A, D106A
Experimental: as §1, §2

[7] = molecular target: T7, FGFR1 D2 point mutant S107A (human, UniProt P11362 22-254)
T7 chain: T1 chain with G58A, S107A
Experimental: as §1, §2

[8] = molecular target: T8, FGFR1 D2 point mutant D88A (human, UniProt P11362 22-254)
T8 chain: T1 chain with G58A, D88A
Experimental: as §1, §2

[9] = molecular target: T9, FGFR1 D2 point mutant I104A (human, UniProt P11362 22-254)
T9 chain: T1 chain with G58A, I104A
Experimental: as §1, §2

[10] = molecular target: T10, FGFR1 D2 point mutant P57A (human, UniProt P11362 22-254)
T10 chain: T1 chain with P57A, G58A
Experimental: as §1, §2

[11] = molecular target: T11, FGFR1 D2 point mutant I91A (human, UniProt P11362 22-254)
T11 chain: T1 chain with G58A, I91A
Experimental: as §1, §2

Kd [1]: 2.2 nM
Kd [2]: 0.28 nM
Kd [3]: 0.2 nM
Kd [4]: 0.22 nM
Kd [5]: 0.19 nM
Kd [6]: 4.93 nM
Kd [7]: 0.24 nM
Kd [8]: 0.16 nM
Kd [9]: 0.93 nM
Kd [10]: 0.41 nM
Kd [11]: 0.19 nM
B1: mAb #A08 (antibody, V domains shown)
VH: EVQLQESGPGLVKPSGTLSLTCAVSGGSISSNNWWSWVRQPPGKGLEWIGEIYHSGSTSYNPSLKSRVTISVDKSKNQFSLKLNSVTAADTAVYYCARGTDWFDPWGQGTLVTVSS
VL: QAVLTQPPSVSVAPGQTARITCGGNNIGSESVHWYQQKPGQAPVLVVYDDSDRPSGIPERFSGSNSGNTATLTISRVEAGDEADYYCQVWDSTSDHRVFGGGTKLTVL
notes: Only variable domains are tied to the name mAb #A08 (hit); also called #A08 hit; mAb #08
